Test results taken from paper PMC7192592 (Nucleic Acids Research, 2020).

Tests used:
[1] = target: the molecule itself; assay: FRET or BRET; donor- and acceptor-labeled cGAS^FL with 72-bp dsDNA, with or without Mn^2+ and/or Apcpp/Gpcpp (Supplementary Figure S2A)
[2] = target: the molecule itself; assay: SEC; size-exclusion chromatography of cGAS^FL variants (Supplementary Figure S2B)

Protein | binding result [1] | stoichiometry N [2]
TAMRA- or Cy5-labeled cGAS^FL (1:1 mixture of donor- and acceptor-labeled populations) (enzyme, human, UniProt Q8N884 2-522, looked up, TAMRA or Cy5 label (site not stated)) QPWHGKAMQRASEAGATAPKASARNARGAPMDPTESPAAPEAALPKAGKFGPARKSGSRQKKSAPDTQERPPVRATGARAKKAPQRAQDTQPSDATSAPGAEGLEPPAAREPALSRAGSCRQRGARCSTKPRPPPGPWDVPSPGLPVSAPILVRRDAAPGASKLRAVLEKLKLSRDDISTAAGMVKGVVDHLLLRLKCDSAFRGVGLLNTGSYYEHVKISAPNEFDVMFKLEVPRIQLEEYSNTRAYYFVKFKRNPKENPLSQFLEGEILSASKMLSKFRKIIKEEINDIKDTDVIMKRKRGGSPAVTLLISEKISVDITLALESKSSWPASTQEGLRIQNWLSAKVRKQLRLKPFYLVPKHAKEGNGFQEETWRLSFSHIEKEILNNHGKSKTCCENKEEKCCRKDCLKLMKYLLEQLKERFKDKKHLDKFSSYHVKTAFFHVCTQNPQDSQWDRKDLGLCFDNCVTYFLQCLRTEKLENYFIPEFNLFSSNLIDKRSKEFLTKQIEYERNNEFPVFDEF | binds | –
K173E/R176E-cGAS^FL (enzyme, human, UniProt Q8N884 2-522, looked up) QPWHGKAMQRASEAGATAPKASARNARGAPMDPTESPAAPEAALPKAGKFGPARKSGSRQKKSAPDTQERPPVRATGARAKKAPQRAQDTQPSDATSAPGAEGLEPPAAREPALSRAGSCRQRGARCSTKPRPPPGPWDVPSPGLPVSAPILVRRDAAPGASKLRAVLEKLELSEDDISTAAGMVKGVVDHLLLRLKCDSAFRGVGLLNTGSYYEHVKISAPNEFDVMFKLEVPRIQLEEYSNTRAYYFVKFKRNPKENPLSQFLEGEILSASKMLSKFRKIIKEEINDIKDTDVIMKRKRGGSPAVTLLISEKISVDITLALESKSSWPASTQEGLRIQNWLSAKVRKQLRLKPFYLVPKHAKEGNGFQEETWRLSFSHIEKEILNNHGKSKTCCENKEEKCCRKDCLKLMKYLLEQLKERFKDKKHLDKFSSYHVKTAFFHVCTQNPQDSQWDRKDLGLCFDNCVTYFLQCLRTEKLENYFIPEFNLFSSNLIDKRSKEFLTKQIEYERNNEFPVFDEF | – | 2
human full-length cGAS (cGAS^FL), wild-type (enzyme, UniProt Q8N884 2-522, looked up) QPWHGKAMQRASEAGATAPKASARNARGAPMDPTESPAAPEAALPKAGKFGPARKSGSRQKKSAPDTQERPPVRATGARAKKAPQRAQDTQPSDATSAPGAEGLEPPAAREPALSRAGSCRQRGARCSTKPRPPPGPWDVPSPGLPVSAPILVRRDAAPGASKLRAVLEKLKLSRDDISTAAGMVKGVVDHLLLRLKCDSAFRGVGLLNTGSYYEHVKISAPNEFDVMFKLEVPRIQLEEYSNTRAYYFVKFKRNPKENPLSQFLEGEILSASKMLSKFRKIIKEEINDIKDTDVIMKRKRGGSPAVTLLISEKISVDITLALESKSSWPASTQEGLRIQNWLSAKVRKQLRLKPFYLVPKHAKEGNGFQEETWRLSFSHIEKEILNNHGKSKTCCENKEEKCCRKDCLKLMKYLLEQLKERFKDKKHLDKFSSYHVKTAFFHVCTQNPQDSQWDRKDLGLCFDNCVTYFLQCLRTEKLENYFIPEFNLFSSNLIDKRSKEFLTKQIEYERNNEFPVFDEF | – | 2
